# Reference: PMC6555819, “Comprehensive study of nuclear receptor DNA binding provides a revised framework for understanding receptor specificity”
# B1: NRC3_wobSeed74_DR3_T21G_o1 (dsDNA)
# DNA 1: GCTCTAGTTGGTCACGGAGGGCACACACGACGGGTAGCGATTGACAGCGTAGAATGAAGG
# DNA 2: CCTTCATTCTACGCTGTCAATCGCTACCCGTCGTGTGTGCCCTCCGTGACCAACTAGAGC
# B2: NRC3_random_hg19_262_o1 (dsDNA)
# DNA 1: GCGACTAATGCTTACCTTTAGAAAGTGCAAGTGAATGCGATTGACAGCGTAGAATGAAGG
# DNA 2: CCTTCATTCTACGCTGTCAATCGCATTCACTTGCACTTTCTAAAGGTAAGCATTAGTCGC
# B3: NRC3_random_hg19_352_o1 (dsDNA)
# DNA 1: GCGAGATGCAGCCAACCTGTAGAGATCCTGTGGAGAGCGATTGACAGCGTAGAATGAAGG
# DNA 2: CCTTCATTCTACGCTGTCAATCGCTCTCCACAGGATCTCTACAGGTTGGCTGCATCTCGC
# B4: NRC3_random_hg19_495_o1 (dsDNA)
# DNA 1: GCGCACCATCTGTGAGAAAGTAGCCCTTCACCAAACGCGATTGACAGCGTAGAATGAAGG
# DNA 2: CCTTCATTCTACGCTGTCAATCGCGTTTGGTGAAGGGCTACTTTCTCACAGATGGTGCGC
# B5: NRC3_random_hg19_100_o1 (dsDNA)
# DNA 1: GCGAGTTTGAGACCAGCCTGGCCAACATGGCAAGAGGCGATTGACAGCGTAGAATGAAGG
# DNA 2: CCTTCATTCTACGCTGTCAATCGCCTCTTGCCATGTTGGCCAGGCTGGTCTCAAACTCGC
# B6: NRC3_wobSeed37_DR1_T23C_o1 (dsDNA)
# DNA 1: GCCGTCCAAGGTCAAAGGTCAGCGAAGAGATGACGGGCGATTGACAGCGTAGAATGAAGG
# DNA 2: CCTTCATTCTACGCTGTCAATCGCCCGTCATCTCTTCGCTGACCTTTGACCTTGGACGGC
# B7: NRC3_random_hg19_18_o1 (dsDNA)
# DNA 1: GCATACACTTCTGGAGGCCAGAGGTCTGAAATCAAGGCGATTGACAGCGTAGAATGAAGG
# DNA 2: CCTTCATTCTACGCTGTCAATCGCCTTGATTTCAGACCTCTGGCCTCCAGAAGTGTATGC
# B8: NRC3_random_hg19_43_o1 (dsDNA)
# DNA 1: GCAGGACCTCTTCAAGGAGAACTACAAACCACTGCTGCGATTGACAGCGTAGAATGAAGG
# DNA 2: CCTTCATTCTACGCTGTCAATCGCAGCAGTGGTTTGTAGTTCTCCTTGAAGAGGTCCTGC
# B9: NRC3_random_hg19_348_o1 (dsDNA)
# DNA 1: GCGGAGCAGTCTGCTTTCACGCAGCCTGCTGGGCACGCGATTGACAGCGTAGAATGAAGG
# DNA 2: CCTTCATTCTACGCTGTCAATCGCGTGCCCAGCAGGCTGCGTGAAAGCAGACTGCTCCGC
# B10: NRC3_wobSeed21_DR0_C21T_o1 (dsDNA)
# DNA 1: GCCGTCAAAGTTCAAGGTAATGTAACAGAAAGCAGCGCGATTGACAGCGTAGAATGAAGG
# DNA 2: CCTTCATTCTACGCTGTCAATCGCGCTGCTTTCTGTTACATTACCTTGAACTTTGACGGC
# B11: NRC3_wobSeed27_DR1_G24A_o1 (dsDNA)
# DNA 1: GCACTCGGAGGACAAAGGTCAGAACTACGCCAGTGAGCGATTGACAGCGTAGAATGAAGG
# DNA 2: CCTTCATTCTACGCTGTCAATCGCTCACTGGCGTAGTTCTGACCTTTGTCCTCCGAGTGC
# B12: NRC3_wobSeed86_DR3_o1 (dsDNA)
# DNA 1: GCGCTGCTAGGTCAGGTTGGTCAGCTAACGGGTACGGCGATTGACAGCGTAGAATGAAGG
# DNA 2: CCTTCATTCTACGCTGTCAATCGCCGTACCCGTTAGCTGACCAACCTGACCTAGCAGCGC
# B13: NRC3_wobSeed100_DR4_T22G_o1 (dsDNA)
# DNA 1: GCCCTACTGGGCCACGAAAGGGCATTGATTCAGTGAGCGATTGACAGCGTAGAATGAAGG
# DNA 2: CCTTCATTCTACGCTGTCAATCGCTCACTGAATCAATGCCCTTTCGTGGCCCAGTAGGGC
# B14: NRC3_wobSeed29_DR1_T22A_o1 (dsDNA)
# DNA 1: GCGCTTACGGGTCAAAGGTTAAAGCATGAATAGAATGCGATTGACAGCGTAGAATGAAGG
# DNA 2: CCTTCATTCTACGCTGTCAATCGCATTCTATTCATGCTTTAACCTTTGACCCGTAAGCGC
# B15: NRC3_wobSeed29_DR1_G17A_o1 (dsDNA)
# DNA 1: GCGCTTACGGGTCAAAAGTTATAGCATGAATAGAATGCGATTGACAGCGTAGAATGAAGG
# DNA 2: CCTTCATTCTACGCTGTCAATCGCATTCTATTCATGCTATAACTTTTGACCCGTAAGCGC
# B16: NRC3_wobSeed10_DR0_G17T_o1 (dsDNA)
# DNA 1: GCATCGAAAGGTCGAGTTGAGTATAGAGAAAGGGAAGCGATTGACAGCGTAGAATGAAGG
# DNA 2: CCTTCATTCTACGCTGTCAATCGCTTCCCTTTCTCTATACTCAACTCGACCTTTCGATGC
# B17: NRC3_wobSeed45_DR1_A14T_o1 (dsDNA)
# DNA 1: GCTGTCAAAGTTCTAAGGTAACGTAAGTATCCACACGCGATTGACAGCGTAGAATGAAGG
# DNA 2: CCTTCATTCTACGCTGTCAATCGCGTGTGGATACTTACGTTACCTTAGAACTTTGACAGC
# B18: NRC3_wobSeed98_DR4_C23A_o1 (dsDNA)
# DNA 1: GCACTAGTTGGTCAGCTGAGGTAACACACAATTCGGGCGATTGACAGCGTAGAATGAAGG
# DNA 2: CCTTCATTCTACGCTGTCAATCGCCCGAATTGTGTGTTACCTCAGCTGACCAACTAGTGC
# B19: NRC3_wobSeed130_DR5_T12G_o1 (dsDNA)
# DNA 1: GCCTCGAAAGGGCGTGCTCAGGTGAGTATACCAAACGCGATTGACAGCGTAGAATGAAGG
# DNA 2: CCTTCATTCTACGCTGTCAATCGCGTTTGGTATACTCACCTGAGCACGCCCTTTCGAGGC
# B20: NRC3_random_hg19_151_o1 (dsDNA)
# DNA 1: GCCCCAATCTACTAGAAACACTTCCTGGAGAACCCGGCGATTGACAGCGTAGAATGAAGG
# DNA 2: CCTTCATTCTACGCTGTCAATCGCCGGGTTCTCCAGGAAGTGTTTCTAGTAGATTGGGGC
# B21: NRC3_random_hg19_110_o1 (dsDNA)
# DNA 1: GCTGCTGATTCATAGCTTGTAACTTCGTGTTCTTTAGCGATTGACAGCGTAGAATGAAGG
# DNA 2: CCTTCATTCTACGCTGTCAATCGCTAAAGAACACGAAGTTACAAGCTATGAATCAGCAGC
# B22: NRC3_random_hg19_225_o1 (dsDNA)
# DNA 1: GCTGGATGAAGTGGAAGAACAAGGCTATTCTTTACTGCGATTGACAGCGTAGAATGAAGG
# DNA 2: CCTTCATTCTACGCTGTCAATCGCAGTAAAGAATAGCCTTGTTCTTCCACTTCATCCAGC
# B23: NRC3_random_hg19_165_o1 (dsDNA)
# DNA 1: GCTGAGTCCCTGCACTAGTCGGTTTGAGCTGCTTGTGCGATTGACAGCGTAGAATGAAGG
# DNA 2: CCTTCATTCTACGCTGTCAATCGCACAAGCAGCTCAAACCGACTAGTGCAGGGACTCAGC
# B24: NRC3_random_hg19_201_o1 (dsDNA)
# DNA 1: GCCAAGGCTACCAAAGCAGTTTCTGGGCATGCTGAGGCGATTGACAGCGTAGAATGAAGG
# DNA 2: CCTTCATTCTACGCTGTCAATCGCCTCAGCATGCCCAGAAACTGCTTTGGTAGCCTTGGC
# B25: NRC3_random_hg19_182_o1 (dsDNA)
# DNA 1: GCGCAGGAGACTCACTTGTGCATGCAGGGTTGAGGCGCGATTGACAGCGTAGAATGAAGG
# DNA 2: CCTTCATTCTACGCTGTCAATCGCGCCTCAACCCTGCATGCACAAGTGAGTCTCCTGCGC
# Experiments:
# [1] = target: LXRb:RXRa (Homo sapiens, UniProt P55055;P19793 full;full); test: no ligand; PBM; 270 nM : 90 nM RXRa; PBS pH 7.4, 2% milk, 0.02% Triton X-100, 1 mM DTT, BSA, 0.4 mg/ml salmon testes DNA; conditions: tags: His kept;His cleaved; copies: 1;1; label: surface-attached array probe
# Chain of LXRb:RXRa (P55055 whole entry, chain 1 of 2): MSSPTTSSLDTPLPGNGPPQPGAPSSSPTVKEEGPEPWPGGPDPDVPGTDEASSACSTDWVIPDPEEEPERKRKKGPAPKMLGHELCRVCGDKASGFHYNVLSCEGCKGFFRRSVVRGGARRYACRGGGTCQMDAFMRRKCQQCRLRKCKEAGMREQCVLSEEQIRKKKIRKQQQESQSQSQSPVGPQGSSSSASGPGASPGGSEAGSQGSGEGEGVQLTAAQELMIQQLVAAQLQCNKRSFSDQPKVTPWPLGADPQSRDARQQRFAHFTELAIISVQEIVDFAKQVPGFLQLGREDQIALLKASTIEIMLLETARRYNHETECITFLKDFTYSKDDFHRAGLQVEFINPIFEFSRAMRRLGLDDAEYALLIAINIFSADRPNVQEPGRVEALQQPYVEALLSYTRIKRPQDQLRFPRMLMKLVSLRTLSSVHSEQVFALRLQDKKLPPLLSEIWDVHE
# Chain of LXRb:RXRa (P19793 whole entry, chain 2 of 2): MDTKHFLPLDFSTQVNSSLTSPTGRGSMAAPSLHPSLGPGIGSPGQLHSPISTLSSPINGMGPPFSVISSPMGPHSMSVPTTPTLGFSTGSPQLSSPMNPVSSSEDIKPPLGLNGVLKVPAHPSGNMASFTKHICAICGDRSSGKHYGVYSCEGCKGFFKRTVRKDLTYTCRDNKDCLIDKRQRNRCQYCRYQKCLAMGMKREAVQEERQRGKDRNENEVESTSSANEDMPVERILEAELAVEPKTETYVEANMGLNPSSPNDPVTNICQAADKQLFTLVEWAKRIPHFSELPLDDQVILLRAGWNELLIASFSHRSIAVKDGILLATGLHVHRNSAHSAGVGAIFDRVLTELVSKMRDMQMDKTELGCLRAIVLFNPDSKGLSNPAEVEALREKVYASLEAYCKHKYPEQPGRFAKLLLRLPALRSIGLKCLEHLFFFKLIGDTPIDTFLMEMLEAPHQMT
# Outline: (§1)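 Ligand-free nuclear receptor dimers were applied to custom Agilent 4×180K protein-binding microarrays whose double-stranded probes carried direct-repeat seeds, single-nucleotide variants, half-site ablations and random human genomic background sequences in 34-nt variable regions. Incubation lasted 1 h. Binding z-scores were computed against the random background probes from regression-normalized fluorescence.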
# [2] = target: FXR:RXRa (Homo sapiens, UniProt Q96RI1;P19793 full;full); test: as above; conditions: tags: His kept;His cleaved; copies: 1;1; label: surface-attached array probe
# Chain of FXR:RXRa (Q96RI1 whole entry, chain 1 of 2): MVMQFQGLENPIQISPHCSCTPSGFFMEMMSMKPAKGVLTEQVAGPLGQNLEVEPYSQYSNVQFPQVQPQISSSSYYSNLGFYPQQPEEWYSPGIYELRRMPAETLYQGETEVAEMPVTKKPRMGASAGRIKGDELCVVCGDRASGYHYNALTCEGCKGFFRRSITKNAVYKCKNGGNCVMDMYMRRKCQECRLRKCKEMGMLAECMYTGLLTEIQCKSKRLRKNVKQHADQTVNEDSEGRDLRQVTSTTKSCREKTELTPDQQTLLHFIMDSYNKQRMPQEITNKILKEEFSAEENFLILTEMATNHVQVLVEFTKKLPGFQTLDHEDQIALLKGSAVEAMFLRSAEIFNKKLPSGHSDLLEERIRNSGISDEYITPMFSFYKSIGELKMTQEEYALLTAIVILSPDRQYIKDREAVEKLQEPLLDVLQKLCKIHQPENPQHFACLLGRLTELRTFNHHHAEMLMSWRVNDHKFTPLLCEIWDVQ
# Chain of FXR:RXRa (P19793 whole entry, chain 2 of 2): as the sequence (P19793 whole entry, chain 2 of 2) above
# Outline: as §1
# [3] = target: PPARa:RXRa (Homo sapiens, UniProt Q07869;P19793 full;full); test: as above; conditions: tags: GST kept;His cleaved; copies: 1;1; label: surface-attached array probe
# Chain of PPARa:RXRa (Q07869 whole entry, chain 1 of 2): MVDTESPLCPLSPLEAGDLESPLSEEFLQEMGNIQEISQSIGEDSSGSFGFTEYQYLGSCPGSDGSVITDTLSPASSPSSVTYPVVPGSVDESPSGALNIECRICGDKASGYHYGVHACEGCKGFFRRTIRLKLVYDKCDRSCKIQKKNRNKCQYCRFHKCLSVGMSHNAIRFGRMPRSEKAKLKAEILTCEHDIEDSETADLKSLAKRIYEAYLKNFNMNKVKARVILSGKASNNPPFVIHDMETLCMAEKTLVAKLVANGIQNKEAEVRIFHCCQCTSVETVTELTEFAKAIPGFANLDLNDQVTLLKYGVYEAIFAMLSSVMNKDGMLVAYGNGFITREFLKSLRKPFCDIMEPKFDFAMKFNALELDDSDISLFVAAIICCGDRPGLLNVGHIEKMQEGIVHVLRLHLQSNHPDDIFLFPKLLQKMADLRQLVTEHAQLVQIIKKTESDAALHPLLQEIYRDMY
# Chain of PPARa:RXRa (P19793 whole entry, chain 2 of 2): as the sequence (P19793 whole entry, chain 2 of 2) above
# Outline: as §1
# [4] = target: RARg:RXRa (Homo sapiens, UniProt P13631;P19793 full;full); test: as above; conditions: tags: His kept;His cleaved; copies: 1;1; label: surface-attached array probe
# Chain of RARg:RXRa (P13631 whole entry, chain 1 of 2): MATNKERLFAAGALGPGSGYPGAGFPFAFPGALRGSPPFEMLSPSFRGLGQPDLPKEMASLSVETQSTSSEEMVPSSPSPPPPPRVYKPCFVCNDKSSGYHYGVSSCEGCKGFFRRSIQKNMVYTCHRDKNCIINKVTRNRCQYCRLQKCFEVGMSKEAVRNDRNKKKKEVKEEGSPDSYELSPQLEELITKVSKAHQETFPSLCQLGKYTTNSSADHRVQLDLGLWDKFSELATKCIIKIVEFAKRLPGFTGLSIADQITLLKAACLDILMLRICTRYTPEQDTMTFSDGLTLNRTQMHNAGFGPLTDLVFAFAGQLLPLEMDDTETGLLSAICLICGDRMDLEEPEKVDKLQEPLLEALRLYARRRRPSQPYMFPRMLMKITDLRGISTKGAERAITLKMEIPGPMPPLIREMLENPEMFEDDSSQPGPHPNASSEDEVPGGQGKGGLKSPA
# Chain of RARg:RXRa (P19793 whole entry, chain 2 of 2): as the sequence (P19793 whole entry, chain 2 of 2) above
# Outline: as §1
# [5] = target: RARb:RXRa (Homo sapiens, UniProt P10826;P19793 full;full); test: as above; conditions: tags: His kept;His cleaved; copies: 1;1; label: surface-attached array probe
# Chain of RARb:RXRa (P10826 whole entry, chain 1 of 2): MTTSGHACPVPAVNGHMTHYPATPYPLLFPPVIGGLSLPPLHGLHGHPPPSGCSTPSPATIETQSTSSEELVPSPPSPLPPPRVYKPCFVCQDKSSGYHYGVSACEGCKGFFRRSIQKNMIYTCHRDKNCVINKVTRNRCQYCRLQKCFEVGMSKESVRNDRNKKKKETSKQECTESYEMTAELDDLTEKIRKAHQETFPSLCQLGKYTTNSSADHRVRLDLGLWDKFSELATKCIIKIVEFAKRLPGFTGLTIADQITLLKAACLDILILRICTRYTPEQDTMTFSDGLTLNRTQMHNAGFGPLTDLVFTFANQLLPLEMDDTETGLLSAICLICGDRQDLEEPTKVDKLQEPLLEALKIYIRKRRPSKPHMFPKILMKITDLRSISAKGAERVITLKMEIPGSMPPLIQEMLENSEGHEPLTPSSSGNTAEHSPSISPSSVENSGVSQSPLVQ
# Chain of RARb:RXRa (P19793 whole entry, chain 2 of 2): as the sequence (P19793 whole entry, chain 2 of 2) above
# Outline: as §1
# [6] = target: VDR:RXRa (Homo sapiens, UniProt P11473;P19793 full;full); test: as above; conditions: tags: His kept;His cleaved; copies: 1;1; label: surface-attached array probe
# Chain of VDR:RXRa (P11473 whole entry, chain 1 of 2): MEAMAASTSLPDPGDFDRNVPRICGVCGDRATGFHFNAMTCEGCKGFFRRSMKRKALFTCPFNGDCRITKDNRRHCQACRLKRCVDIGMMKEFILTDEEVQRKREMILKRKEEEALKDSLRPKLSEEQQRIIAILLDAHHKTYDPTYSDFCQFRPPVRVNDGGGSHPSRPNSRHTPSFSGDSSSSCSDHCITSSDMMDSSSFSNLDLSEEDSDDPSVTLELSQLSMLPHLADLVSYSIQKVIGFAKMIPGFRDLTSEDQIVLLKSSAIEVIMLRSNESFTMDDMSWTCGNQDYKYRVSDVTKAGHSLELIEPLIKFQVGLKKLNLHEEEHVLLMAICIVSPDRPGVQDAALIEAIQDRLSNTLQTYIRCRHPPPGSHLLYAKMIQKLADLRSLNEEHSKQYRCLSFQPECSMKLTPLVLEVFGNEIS
# Chain of VDR:RXRa (P19793 whole entry, chain 2 of 2): as the sequence (P19793 whole entry, chain 2 of 2) above
# Outline: as §1
# [7] = target: RXRa (Homo sapiens, UniProt P19793); test: no ligand; PBM; 180 nM; PBS pH 7.4, 2% milk, 0.02% Triton X-100, 1 mM DTT, BSA, 0.4 mg/ml salmon testes DNA; conditions: tags: His cleaved; chain copies: 2; label: surface-attached array probe
# Chain of RXRa (P19793 whole entry): as the sequence (P19793 whole entry, chain 2 of 2) above
binder,measurement,setting,value
B1,binding signal,[1],0.5 PBM z-score against 500 random probes
same,binding signal,[2],0.34 PBM z-score against 500 random probes
B2,binding signal,[3],0.36 PBM z-score against 500 random probes
same,binding signal,[1],0.24 PBM z-score against 500 random probes
same,binding signal,[2],0.19 PBM z-score against 500 random probes
B3,binding signal,[4],-0.52 PBM z-score against 500 random probes
same,binding signal,[3],-0.6 PBM z-score against 500 random probes
same,binding signal,[1],-0.67 PBM z-score against 500 random probes
same,binding signal,[2],-0.39 PBM z-score against 500 random probes
B4,binding signal,[1],-0.24 PBM z-score against 500 random probes
same,binding signal,[2],-0.51 PBM z-score against 500 random probes
B5,binding signal,[1],-1.11 PBM z-score against 500 random probes
same,binding signal,[2],-0.7 PBM z-score against 500 random probes
B6,binding signal,[1],7.14 PBM z-score against 500 random probes
same,binding signal,[5],6.23 PBM z-score against 500 random probes
B7,binding signal,[1],-0.22 PBM z-score against 500 random probes
same,binding signal,[5],0.42 PBM z-score against 500 random probes
B8,binding signal,[3],-0.17 PBM z-score against 500 random probes
same,binding signal,[1],-0.03 PBM z-score against 500 random probes
same,binding signal,[5],-0.5 PBM z-score against 500 random probes
B9,binding signal,[1],-1.82 PBM z-score against 500 random probes
same,binding signal,[5],-2.02 PBM z-score against 500 random probes
B10,binding signal,[6],3.72 PBM z-score against 500 random probes
same,binding signal,[1],3.22 PBM z-score against 500 random probes
B11,binding signal,[6],3.2 PBM z-score against 500 random probes
same,binding signal,[1],3.26 PBM z-score against 500 random probes
B12,binding signal,[6],0.5 PBM z-score against 500 random probes
same,binding signal,[1],0.46 PBM z-score against 500 random probes
B13,binding signal,[6],0.11 PBM z-score against 500 random probes
same,binding signal,[1],0.15 PBM z-score against 500 random probes
B14,binding signal,[7],10 PBM z-score against 500 random probes
same,binding signal,[1],6.19 PBM z-score against 500 random probes
B15,binding signal,[4],4.11 PBM z-score against 500 random probes
same,binding signal,[1],3.65 PBM z-score against 500 random probes
B16,binding signal,[7],4.1 PBM z-score against 500 random probes
same,binding signal,[1],3.11 PBM z-score against 500 random probes
B17,binding signal,[7],0.38 PBM z-score against 500 random probes
same,binding signal,[4],0.41 PBM z-score against 500 random probes
same,binding signal,[1],0.4 PBM z-score against 500 random probes
B18,binding signal,[7],0.48 PBM z-score against 500 random probes
same,binding signal,[1],0.34 PBM z-score against 500 random probes
B19,binding signal,[7],0.33 PBM z-score against 500 random probes
same,binding signal,[1],0.29 PBM z-score against 500 random probes
B20,binding signal,[4],-0.01 PBM z-score against 500 random probes
same,binding signal,[1],0.38 PBM z-score against 500 random probes
B21,binding signal,[4],-0.76 PBM z-score against 500 random probes
same,binding signal,[1],-0.27 PBM z-score against 500 random probes
B22,binding signal,[7],-0.39 PBM z-score against 500 random probes
same,binding signal,[4],0.01 PBM z-score against 500 random probes
same,binding signal,[1],-0.34 PBM z-score against 500 random probes
B23,binding signal,[7],-1.2 PBM z-score against 500 random probes
same,binding signal,[1],-0.66 PBM z-score against 500 random probes
B24,binding signal,[3],-0.55 PBM z-score against 500 random probes
same,binding signal,[1],-0.95 PBM z-score against 500 random probes
B25,binding signal,[1],-1.08 PBM z-score against 500 random probes
